This passage reports IC50 results from patent publication US20130052176, “APTAMER FOR NGF AND USE THEREOF” (SHIONOGI & CO., LTD, published 2013).

What is called IC50 is the midpoint of a concentration-inhibition curve. A high value points to weaker potency in that assay.

Data set [1] has as its target T1, NGF (nerve growth factor) (human, UniProt P01138 P01138:122-241). The data set is described as follows: cell_activity; neurite outgrowth, NGF 0.38 nM; SPR binding; TF-1 IC50 0.078 nM. To be noted: tags: amine-coupled to CM5 chip in SPR; soluble in cell assays; chain copies: 2. The procedure: (§1) The neurite outgrowth inhibitory activity of the aptamer obtained in Example 1 was evaluated by using Neuroscreen-1 cell, which is a subclone of PC-12 cells.
(§2) The cells (2500 cells per well) were cultured for one day in an RPMI-1640 medium containing 2.5% horse serum and 1.25% fetal bovine serum in a 96 well flat-bottom plate coated with collagen type IV. […] Two days later, the cytoplasm and nuclei were stained using Cellomics Neurite Outgrowth Kit (manufactured by Thermo Scientific), and neurite length per cell was measured by Cellomics ArrayScan VTI (manufactured by Thermo Scientific). With the neurite length per cell obtained by the addition of NGF alone as inhibitory activity 0%, and that of the cell obtained by NGF free culture for 2 days as inhibitory activity 100%, the inhibitory activity of the aptamer was calculated from the neurite length per cell obtained by culturing with the addition of NGF and the aptamer in mixture. When the inhibitory activity was 0% or below, ‘0%’ is indicated.

Data set [2] deals with T1, NGF (nerve growth factor). In words: cell_activity; neurite outgrowth, NGF 0.38 nM; SPR binding; TF-1 IC50 0.1 nM. To be noted: tags: amine-coupled to CM5 chip in SPR; soluble in cell assays; chain copies: 2. (SPR reads the build-up and loss of mass on a sensor chip optically.)
Data set [3] concerns the target T1, NGF (nerve growth factor). In words: cell_activity; neurite outgrowth, NGF 1.1 nM; SPR binding; TF-1 IC50 6.8 nM. The following applies: tags: amine-coupled to CM5 chip in SPR; soluble in cell assays; chain copies: 2. As to the method: as §1, §2
Data set [4] has as its target T1, NGF (nerve growth factor). In words: cell_activity; neurite outgrowth, NGF 1.1 nM; SPR binding; TF-1 IC50 3.4 nM. The following applies: tags: amine-coupled to CM5 chip in SPR; soluble in cell assays; chain copies: 2.
For data set [5], the target named is T1, NGF (nerve growth factor). The data set is described as follows: cell_activity; neurite outgrowth, NGF 0.38 nM; SPR binding; TF-1 IC50 >0.3 nM. To be noted: tags: amine-coupled to CM5 chip in SPR; soluble in cell assays; chain copies: 2. As to the method: as §1, §2
For data set [6], the target named is T1, NGF (nerve growth factor). The data set is described as follows: cell_activity; neurite outgrowth, NGF 1.1 nM; SPR binding; blocks NGF-TrkA; TF-1 IC50 8.0 nM. To be noted: tags: amine-coupled to CM5 chip in SPR; soluble in cell assays; chain copies: 2. The procedure:
as §1, §2

Data set [7] has as its target T1, NGF (nerve growth factor). The data set is described as follows: cell_activity; neurite outgrowth, NGF 1.1 nM; SPR binding; blocks NGF-TrkA and NGF-p75. The following applies: tags: amine-coupled to CM5 chip in SPR; soluble in cell assays; chain copies: 2. The procedure:
as §1, §2

The target of data set [8] is T1, NGF (nerve growth factor). In words: cell_activity; neurite outgrowth, NGF 1.1 nM; TF-1 IC50 5.3 nM. To be noted: tags: human NGF; chain copies: 2. As to the method: as §1, §2
In data set [9] the target is T1, NGF (nerve growth factor). In words: cell_activity; neurite outgrowth, NGF 1.1 nM; SPR binding; TF-1 IC50 5.4 nM. To be noted: tags: amine-coupled to CM5 chip in SPR; soluble in cell assays; chain copies: 2. The procedure: as §1, §2
In data set [10] the target is T1, NGF (nerve growth factor). The data set is described as follows: cell_activity; neurite outgrowth, NGF 1.1 nM; SPR binding; blocks NGF-TrkA and NGF-p75; TF-1 IC50 1.3 nM. To be noted: tags: amine-coupled to CM5 chip in SPR; soluble in cell assays; chain copies: 2. The procedure: as §1, §2
In data set [11] the target is T1, NGF (nerve growth factor). The data set is described as follows: cell_activity; neurite outgrowth, NGF 1.1 nM; TF-1 IC50 6.2 nM. The following applies: tags: human NGF; chain copies: 2. The procedure:
as §1, §2

The target in data set [12] is T1, NGF (nerve growth factor). The data set is described as follows: cell_activity; neurite outgrowth, NGF 1.1 nM; SPR binding; TF-1 IC50 6.3 nM. To be noted: tags: amine-coupled to CM5 chip in SPR; soluble in cell assays; chain copies: 2. The procedure: as §1, §2
Data set [13] concerns the target T1, NGF (nerve growth factor). The data set is described as follows: cell_activity; neurite outgrowth, NGF 1.1 nM. The following applies: tags: human NGF; chain copies: 2. As to the method: as §1, §2
Data set [14] concerns the target T1, NGF (nerve growth factor). In words: cell_activity; neurite outgrowth, NGF 1.1 nM; SPR binding; blocks NGF-TrkA and NGF-p75; TF-1 IC50 2.1 nM. The following applies: tags: amine-coupled to CM5 chip in SPR; soluble in cell assays; chain copies: 2. The procedure: as §1, §2

T1 sequence (P01138 122-241, one chain of several): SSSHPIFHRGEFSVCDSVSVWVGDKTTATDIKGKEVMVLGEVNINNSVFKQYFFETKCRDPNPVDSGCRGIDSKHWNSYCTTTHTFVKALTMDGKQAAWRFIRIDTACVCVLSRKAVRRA

B1: aptamer ID 26(61) (ssRNA)
RNA: GGGAGACUCGCCAGAGUUGAAAGAAACCCAAAUAAGUGUGCGCAC
modifications: 2'-F pyrimidines except 2'-OMe at 7,8,9,11,12,17,18,33,37,45 and LNA at c29; 2'-OMe purines except 2'-OH at 3,19,20,26; 5' idT and 3' idT
In the case of B1, the IC50 in data set [1] stood at 0.112 nM.

B2: aptamer ID 26(1) (ssRNA)
RNA: GGGAGACUCGCCAGAGUUGAAAGAAACCCAAAUAAGUGUGCGCAC
modifications: 2'-F pyrimidines; 2'-OMe purines except 2'-OH at 3,5,19-23,25; 5' idT and 3' idT
On to B2, for which the IC50 in data set [2] worked out at 0.06 nM. As to GGGAGACUCGCCAGAGUUGAAAGAAACCCAAAUAAGUGUGCGCAC (ssRNA, 2'-F pyrimidines; 2'-OMe at 1,2,4,5,23-26; other purines 2'-OH) [aptamer ID 26(4)], the IC50 in data set [3] is less than 1 nM. Turning to GGGAGACUCGCCAGAGUUGAAAGAAACCCAAAUAAGUGUGCGCAC (ssRNA, 2'-F pyrimidines; 2'-OMe at 30-32,34,35; other purines 2'-OH) [aptamer ID 26(5)], the IC50 in data set [4] was less than 1 nM.

B3: aptamer ID 26(37) (ssRNA)
RNA: GGGAGACUCGCCAGAGUUGAAAGAAACCCAAAUAAGUGUGCGCAC
modifications: 2'-F pyrimidines except 2'-OMe at 7; 2'-OMe purines except 2'-OH at 3,19,20,26; PS between 18 and 19; 5' idT and 3' idT
B3 displayed an IC50 in data set [5] of 0.181 nM.

B4: aptamer ID 55 (ssRNA)
RNA: GGGAUAAAAAUAGAGUUUGAUAAACACCUGUAUUAAAACCC
modifications: 5' cholesterol; 3' idT; 2'-F pyrimidines and a37,a38; 2'-OMe other purines except 2'-OH at 4,7,30
With B4, in data set [6], the IC50 worked out at 9.8 nM.

B5: aptamer ID 56 (mixed)
mixed: GGGAUAAAAAUAGAGUUUGATAAACACCUGUAUUAAAACCC
modifications: 5' cholesterol; 3' idT; 2'-F pyrimidines (except dT at 21) and a37,a38; 2'-OMe other purines except 2'-OH at 4,7,30
Molecule B5 registered an IC50 in data set [7] of 4.1 nM.

B6: aptamer ID 57(6) (mixed)
mixed: GGGAUAAAAAUAGAGTUUGATAAACACCUGUAUUAAAACCC
modifications: as ID 57 (5' cholesterol; 3' idT; dT16,dT21; 2'-F other pyrimidines and a37,a38; 2'-OMe purines except ribo a4,a7,g30) plus PS between 22 and 23
For B6, the IC50 in data set [8] was less than 3 nM.

B7: aptamer ID 60 (mixed)
mixed: GGGAUAAAAAUAGAGTUUGATAUACACCUGUAUUAAAACCC
modifications: 5' cholesterol; 3' idT; 2'-F pyrimidines (except dT at 16,21) and a37,a38; 2'-OMe other purines except 2'-OH at 4,7,30
Molecule B7 yielded an IC50 in data set [9] of less than 3 nM.

B8: aptamer ID 57(7) (mixed)
mixed: GGGAUAAAAAUAGAGTUUGATAAACACCUGUAUUAAAACCC
modifications: as ID 57 (5' cholesterol; 3' idT; dT16,dT21; 2'-F other pyrimidines and a37,a38; 2'-OMe purines except ribo a4,a7,g30) plus PS between 23 and 24
B8: in [8], the IC50 was less than 3 nM.

B9: aptamer ID 61 (mixed)
mixed: GGGAUAAAAAUAGAGTUUGATAAACACCUGUAUUAAAACCC
modifications: 5' cholesterol; 3' idT; 2'-F pyrimidines (except dT at 16,21) and a38; 2'-OMe other purines except 2'-OH at 4,7,30,37
Take B9: the IC50 in data set [10] is less than 3 nM.

B10: aptamer ID 57(2) (mixed)
mixed: GGGAUAAAAAUAGAGTUUGATAAACACCUGUAUUAAAACCC
modifications: as ID 57 (5' cholesterol; 3' idT; dT16,dT21; 2'-F other pyrimidines and a37,a38; 2'-OMe purines except ribo a4,a7,g30) plus PS between 16 and 17
The molecule B10 registered an IC50 in data set [11] of less than 3 nM.

B11: aptamer ID 62 (mixed)
mixed: GGGAUAAAAAUAGAGTUUGATAAACACCUGUAUUAAAACCC
modifications: 5' cholesterol; 3' idT; 2'-F pyrimidines (except dT at 16,21) and a37; 2'-OMe other purines except 2'-OH at 4,7,30,38
For B11, the IC50 in data set [12] came out at 4.6 nM.

B12: aptamer ID 57 (mixed)
mixed: GGGAUAAAAAUAGAGTUUGATAAACACCUGUAUUAAAACCC
modifications: 5' cholesterol; 3' idT; dT16,dT21; 2'-F other pyrimidines and a37,a38; 2'-OMe purines except ribo a4,a7,g30
Take B12: the IC50 in data set [13] was less than 3 nM.

B13: aptamer ID 57(8) (mixed)
mixed: GGGAUAAAAAUAGAGTUUGATAAACACCUGUAUUAAAACCC
modifications: as ID 57 (5' cholesterol; 3' idT; dT16,dT21; 2'-F other pyrimidines and a37,a38; 2'-OMe purines except ribo a4,a7,g30) plus PS between 24 and 25
As for B13, the IC50 in data set [11] is less than 3 nM.

B14: aptamer ID 63 (mixed)
mixed: GGGAUAAAAAUAGAGTUUGATAAACACCUGUAUUAAAACCC
modifications: 5' cholesterol; 3' idT; 2'-F pyrimidines (except dT at 16,21); 2'-OMe other purines except 2'-OH at 4,7,30,37,38
B14 registered an IC50 in data set [14] of less than 3 nM.
